Consider three molecules from publication PMC9915621.

As usually defined, the Kd is the concentration at which binding is half-saturated. A high value points to weaker binding.

Positions count from the first letter of the chain named. Like-named read-outs stand apart in the source and are kept apart here.

Holding throughout (test): EMSA
Data set [1] deals with T1, PlzA WT (Borrelia burgdorferi B31, UniProt O51675 1-261).
T1 sequence: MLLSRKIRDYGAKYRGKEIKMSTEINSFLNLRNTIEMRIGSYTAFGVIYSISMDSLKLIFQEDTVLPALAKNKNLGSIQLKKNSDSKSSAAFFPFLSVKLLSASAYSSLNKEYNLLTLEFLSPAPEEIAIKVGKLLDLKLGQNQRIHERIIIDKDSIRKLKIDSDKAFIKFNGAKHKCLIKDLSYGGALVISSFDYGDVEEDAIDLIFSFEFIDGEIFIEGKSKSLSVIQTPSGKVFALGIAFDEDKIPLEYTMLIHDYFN

Data set [2] concerns the target T1, PlzA WT. The source holds these as a separate data set.
In data set [3] the target is T1, PlzA WT. The source holds these as a separate data set.
For data set [4], the target named is T1, PlzA WT. The source holds these as a separate data set.
For data set [5], the target named is T2, PlzA RD-RD (Borrelia burgdorferi B31, UniProt O51675 1-261, R145D;R149D).
T2 sequence: T1 sequence with R145D, R149D

Data set [6] addresses T1, PlzA WT. The source holds these as a separate data set.
The target of the next data set is T3, PlzA CTD (Borrelia burgdorferi B31, UniProt O51675 142-261).
T3 sequence: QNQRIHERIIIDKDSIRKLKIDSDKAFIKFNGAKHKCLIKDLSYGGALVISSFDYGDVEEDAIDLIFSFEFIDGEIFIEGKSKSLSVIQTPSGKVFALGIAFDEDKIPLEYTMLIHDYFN

For data set [7], the target named is T2, PlzA RD-RD. The source holds these as a separate data set.

B1: glpFKD(-7/+35) (dsDNA)
DNA 1: ATTAAATATAATTTTAATAAGGCTTTTATTAGAAAAATTAAT
DNA 2: ATTAATTTTTCTAATAAAAGCCTTATTAAAATTATATTTAAT
For the molecule B1, the Kd was found to be 2.81 µM with PlzA WT [1]; 1.33 µM with PlzA WT [2]; 1.25 µM in the data set with PlzA WT [3]; 1.09 µM in the data set with PlzA WT [4]; 4.22 µM with PlzA WT [6]. Further, the binding result with PlzA RD-RD [5] and with PlzA CTD was “no binding” throughout.

As for ATTAAATATAATTTTAATAAGGCTTTTATTAGAAAAATTAAT (ssDNA) [ssglpF], in the data set with PlzA WT [4], the Kd was determined as 4.42 µM.

Consider AUAAUUUUAAUAAGGCUUUUAUUAGAAAAAUUAAU (ssRNA) [glpFKD(UTR) RNA], for which the Kd with PlzA WT [4] turned out to be 0.95 µM; with PlzA WT [6], 4.14 µM. In addition, the binding result with PlzA RD-RD [7] and with PlzA CTD was “no binding” throughout.
